Measurements: PMC10102205, “Active and stable alcohol dehydrogenase-assembled hydrogels via synergistic bridging of triazoles and metal ions” (Nature Communications, 2023)

B1: TbSADH (Thermoanaerobacter brockii) (protein)
chain: MKGFAMLSIGKVGWIEKEKPAPGPFDAIVRPLAVAPCTSDIHTVFEGAIGERHNMILGHEAVGEVVEVGSEVKDFKPGDRVVVPAITPDWRTSEVQRGYHQHSGGMLAGWKFSNVKDGVFGEFFHVNDADMNLAHLPKEIPLEAAVMIPDMMTTGFHGAELADIELGATVAVLGIGPVGLMAVAGAKLRGAGRIIAVGSRPVCVDAAKYYGATDIVNYKDGPIESQIMNLTEGKGVDAAIIAGGNADIMATAVKIVKPGGTIANVNYFGEGEVLPVPRLEWGCGMAHKTIKGGLCPGGRLRMERLIDLVFYKRVDPSKLVTHVFRGFDNIEKAFMLMKDKPKDLIKPVVILA
notes: recombinant from E. coli BL21(DE3), pET28a or pET22b vector, purified by AKTA; homotetramer

Tests used:
[1] = biological target: T1, TbSADH (Thermoanaerobacter brockii, UniProt P14941); assay: isothermal titration calorimetry; type: binding
T1 construct: gene adh; recombinant from E. coli BL21(DE3), pET28a or pET22b vector, purified by AKTA; homotetramer
T1 sequence (P14941 1-352): B1 chain

[2] = substrate: CC(=O)c1ccccc1; assay: asymmetric reduction, chiral HPLC, Michaelis–Menten fit; type: biochemical, Thermoanaerobacter brockii; conditions: free enzyme, not gelated, general assay: NADP^+ 1 mM, 10% IPA, phosphate buffer 50 mM pH 7.4, 30 °C

Row | Molecule | Kd [1] | Km [2] | kcat [2]
1 | Cc1nnc[nH]1 [3-Me-3N, 1H-3-methyl-1,2,4-triazole] | 770 µM | – | –
2 | B1 | – | 17.86 mM | 2.46 s⁻¹
